This note sets out measurements from patent publication US20060205649A1.

Test [1] concerns the target NRSF (endogenous, JTC-19 rat lung fibroblasts) (rat) (UniProt O54963). The test can be described thus: cell-based or functional assay.
In the next test the target is MYC-tagged NRSF protein. The test can be described thus: co-immunoprecipitation (anti-KT3) of HEK cell protein incubated with 0-1000 nM NADH, anti-MYC Western blot; the varied concentration is that of NADH, not of a protein. On the technique in general: A western blot detects proteins with antibodies after separation by electrophoresis.
Sequence of MYC-tagged NRSF protein (Q13127 whole entry): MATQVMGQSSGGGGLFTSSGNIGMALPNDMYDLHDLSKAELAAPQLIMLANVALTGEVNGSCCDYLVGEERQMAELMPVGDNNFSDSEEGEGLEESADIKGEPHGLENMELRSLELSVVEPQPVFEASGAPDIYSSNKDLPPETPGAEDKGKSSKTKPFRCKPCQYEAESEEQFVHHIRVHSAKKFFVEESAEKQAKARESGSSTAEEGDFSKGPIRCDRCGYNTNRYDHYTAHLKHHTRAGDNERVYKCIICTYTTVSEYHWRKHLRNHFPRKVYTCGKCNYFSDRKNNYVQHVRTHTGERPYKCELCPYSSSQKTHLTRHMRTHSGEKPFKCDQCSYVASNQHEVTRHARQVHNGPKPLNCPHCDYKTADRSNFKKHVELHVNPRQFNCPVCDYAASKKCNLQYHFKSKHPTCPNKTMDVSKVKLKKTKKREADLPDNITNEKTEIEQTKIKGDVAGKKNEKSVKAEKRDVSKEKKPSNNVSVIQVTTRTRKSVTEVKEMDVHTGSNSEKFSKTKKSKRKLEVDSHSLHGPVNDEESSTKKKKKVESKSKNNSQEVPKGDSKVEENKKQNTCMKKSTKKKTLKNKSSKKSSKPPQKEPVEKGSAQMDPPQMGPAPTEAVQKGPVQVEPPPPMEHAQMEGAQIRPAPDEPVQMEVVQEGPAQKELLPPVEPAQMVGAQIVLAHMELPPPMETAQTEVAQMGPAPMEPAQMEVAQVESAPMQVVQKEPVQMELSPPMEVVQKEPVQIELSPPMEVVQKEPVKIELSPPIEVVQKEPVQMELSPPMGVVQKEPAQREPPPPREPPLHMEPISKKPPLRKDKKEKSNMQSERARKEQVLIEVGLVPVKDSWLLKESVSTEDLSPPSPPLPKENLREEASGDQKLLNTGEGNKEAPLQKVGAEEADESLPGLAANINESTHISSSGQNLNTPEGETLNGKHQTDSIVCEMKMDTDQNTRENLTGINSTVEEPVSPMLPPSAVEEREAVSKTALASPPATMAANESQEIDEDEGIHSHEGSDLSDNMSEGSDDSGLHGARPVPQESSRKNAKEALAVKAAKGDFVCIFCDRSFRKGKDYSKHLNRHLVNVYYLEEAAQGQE

Sequence of KT3-tagged CtBP2 (P56546 whole entry): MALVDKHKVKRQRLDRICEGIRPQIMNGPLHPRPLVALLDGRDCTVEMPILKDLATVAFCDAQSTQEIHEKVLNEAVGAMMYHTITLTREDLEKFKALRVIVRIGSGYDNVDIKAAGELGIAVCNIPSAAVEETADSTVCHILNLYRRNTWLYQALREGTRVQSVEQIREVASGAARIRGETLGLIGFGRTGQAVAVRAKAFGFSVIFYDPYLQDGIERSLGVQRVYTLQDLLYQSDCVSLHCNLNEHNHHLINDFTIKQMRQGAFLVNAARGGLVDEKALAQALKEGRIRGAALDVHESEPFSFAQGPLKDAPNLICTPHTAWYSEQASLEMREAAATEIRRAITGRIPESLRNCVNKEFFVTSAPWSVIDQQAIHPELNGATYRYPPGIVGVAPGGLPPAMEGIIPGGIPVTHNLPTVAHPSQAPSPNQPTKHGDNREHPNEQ
Sequence of NRSF (endogenous, JTC-19 rat lung fibroblasts) (rat) (O54963 whole entry): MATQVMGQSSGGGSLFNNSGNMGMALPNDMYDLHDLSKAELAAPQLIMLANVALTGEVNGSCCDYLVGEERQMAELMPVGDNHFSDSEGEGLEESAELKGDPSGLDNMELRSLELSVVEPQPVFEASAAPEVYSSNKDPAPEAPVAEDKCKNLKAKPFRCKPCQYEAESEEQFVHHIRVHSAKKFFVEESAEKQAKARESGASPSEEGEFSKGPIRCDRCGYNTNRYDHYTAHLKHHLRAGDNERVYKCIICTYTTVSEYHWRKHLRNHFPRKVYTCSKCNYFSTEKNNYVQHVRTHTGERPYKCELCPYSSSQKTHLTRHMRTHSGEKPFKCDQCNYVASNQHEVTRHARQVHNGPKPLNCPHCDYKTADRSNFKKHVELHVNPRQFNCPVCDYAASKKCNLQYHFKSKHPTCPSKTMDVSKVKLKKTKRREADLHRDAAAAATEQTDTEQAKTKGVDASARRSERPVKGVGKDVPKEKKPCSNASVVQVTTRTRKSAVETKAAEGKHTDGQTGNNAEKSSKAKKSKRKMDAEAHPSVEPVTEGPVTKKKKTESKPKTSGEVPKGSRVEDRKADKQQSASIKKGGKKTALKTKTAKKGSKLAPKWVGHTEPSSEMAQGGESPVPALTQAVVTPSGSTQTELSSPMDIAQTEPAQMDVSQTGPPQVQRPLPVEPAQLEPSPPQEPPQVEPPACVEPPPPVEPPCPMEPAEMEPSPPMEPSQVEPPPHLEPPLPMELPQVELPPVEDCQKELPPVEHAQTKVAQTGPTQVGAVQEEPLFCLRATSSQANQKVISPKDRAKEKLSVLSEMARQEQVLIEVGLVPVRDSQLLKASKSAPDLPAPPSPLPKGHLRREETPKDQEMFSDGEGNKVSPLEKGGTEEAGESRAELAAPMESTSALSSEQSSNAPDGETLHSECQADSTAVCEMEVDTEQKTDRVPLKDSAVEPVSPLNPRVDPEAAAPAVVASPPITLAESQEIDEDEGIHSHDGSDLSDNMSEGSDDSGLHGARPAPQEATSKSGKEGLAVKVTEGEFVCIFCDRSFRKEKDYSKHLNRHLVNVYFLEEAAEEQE

Substance “CtBP (endogenous, JTC-19 rat lung fibroblasts) (from UniProt F7FG31 1-441)” came in with an amount of CtBP recruited to CHRM4, the NRSF target gene (ChIP, JTC-19 cells grown with 2-DG or glucose) in test [1] of 5 fold. In the test with MYC-tagged NRSF protein, KT3-tagged CtBP2 showed an NADH concentration at half maximal binding of CtBP to NRSF of 70 nM.
